Test results from US20240392013A1, “IL1RAP ANTIBODIES AND USES THEREOF” (STELEXIS THERAPEUTICS, LLC, priority 2021, published 2024).

Key:
[1] = tested on: IL1-induced downstream signaling (phospho-ERK, NFκB) in AML patient samples; assay: IL1 signaling in AML patient samples, Western blot; format: cell-based, human; conditions: antibody 20 μg/ml, IL1β 100 ng/ml
Method: (§1) AML patient samples or cancer cells (AML, chronic myelogenous leukemia (CML), pancreatic, head and neck squamous cell carcinoma (HNSCC), bladder, non-small-cell lung carcinoma (NSCLC), colorectal and triple-negative breast cancer (TNBC)) were seeded in 6-well plates (5×10^5 cells/well) and incubated overnight at 37° C./5% CO2 in humified incubator. In experiments conducted in cancer cell lines, cells were washed 2× with PBS and serum-starved for 3 hours. Following, cells were treated with IL1RAP antibodies at concentration of 20 μg/ml and incubated for 1 h at 37° C./5% CO2 in humidified incubator. After 1 h, cells were treated with IL1β (Invivogen, cat: rcyec-hil1b), IL33 (Adipogen, cat: AG-40B-0160-C010) or IL36 cytokines (R@D, cat: 6836IL) at 100 ng/ml and incubated for 15 more minutes. Cells were harvested on ice after 1× wash with cold PBS and were centrifuged for 5 minutes at 5000 rpm at 4° C. Cells were then lysed with NP-40 buffer for 5 minutes on ice and centrifuged for 15 minutes at 15000 rpm at 4° C. Supernatants were collected and protein concentrations were determined by BCA (Thermofisher, Cat #PI23225). […] After 3× washes, ECL was applied (Thermofisher, Cat #32106) and proteins were detected after exposure to autoradioraphic films (Worldwide medical products, Cat #41101001) and protein intensity was quantitated using ImageJ software.

[2] = tested on: IL33-induced downstream signaling (phospho-ERK, p38, NFκB) in AML patient samples; assay: IL33 signaling in AML patient samples, Western blot; format: cell-based, human; conditions: antibody 20 μg/ml, IL33 100 ng/ml
Method: as §1

[3] = tested on: IL36-induced downstream signaling (phospho-ERK, AKT, p38, NFκB) in HPAC, CAL33, 5637 cells; assay: IL36 signaling in solid tumor cancer cells, Western blot; format: cell-based; conditions: IL36γ, antibody 20 μg/ml
Method: as §1

[4] = tested on: patient-derived AML samples; assay: Cell viability of patient-derived AML samples, CellTiter-Glo; format: cell-based, human; conditions: 15 patient-derived AML samples; 0.1-100 nM, 6 days
Method: Primary patient-derived AML cells collected using leukapheresis or peripheral blood draw were selected based on expression levels of IL1RAP, IL1R1 and IL1RL1. On study day 0, cell viability was calculated, and cells were seeded at a density of 20,000 viable cells/well in 96-well plates. Cells were treated on Day 0 with IL1RAP monoclonal antibodies at a concentration of 100 nM followed by 5-fold serial dilutions. Cytarabine treatment (5 μM) was used as a positive control. Plates were kept at 37° C./5% CO2 in humified incubator and media was not changed during the duration of the assay. On Day 6, plates were removed from incubator and equilibrated to room temperature for up to 30 minutes. Then CellTiter-Glo was added to wells (100 μl) and plates were mixed for 2 minutes on plate rocker, followed by 10 minutes incubation at room temperature. Luminescent signal was recorded using Tecan plate reader and IC50s were calculated.

AML cells (THP-1) = assay: Expression of differentiation markers in AML cells, flow cytometry; format: cell-based, human; conditions: 150 μg/ml, 48 hours
Method: Methods: AML cells (THP-1) were seeded at 0.5×10^6/well in 6-well plate and were treated with IL1RAP antibody or IgG control at 150 μg/ml for 48 hours. After 48 hours cells were collected, and expression of differentiation markers was monitored by flow cytometry. Cells were stained for CD14 (BD, cat: 325620) and CD15 (Thermo, cat: 17-01-59-42) differentiation markers and data were analyzed with FlowJo.

[5] = tested on: IL36γ-induced NFκB activity; assay: HEKBlue-IL36 cell-based reporter assay; conditions: HEKBlue-IL36, FIG. 22
Method: Inhibition by STLX2012 was measured by the HEKBlue-IL36 cell-based reporter assay. The HEK-Blue IL36 (Invivogen, Cat #hil36r-hkb) cell line was used to monitor NFκB activity upon stimulation with IL36γ cytokine. In this cell line, the secreted embryonic alkaline phosphatase reporter gene (SEAP) is inducibly expressed under the control of IFN-β minimal promoter fused to NFκB/AP-1. Specificity to IL36γ cytokine was achieved by blockage of TNF-α and IL1 response. Cells are maintained in the presence of zeocin (100 μg/ml) and blasticidin (10 μg/ml).

[6] = tested on: AML patient-derived leukemic cells; assay: Jurkat-Lucia NFAT-CD16 ADCC reporter assay against AML patient-derived leukemic cells; format: cell-based, human
Excerpt: Methods: ADCC activity is mediated through binding of NK cell's CD16 receptors to the Fc region of antibodies. A Jurkat-Lucia NFAT-CD16 ADCC Reporter cell assay (Invivogen, Cat #jktl-nfat-cd16; https://www.invivogen.com/jurkat-lucia-nfat-adcc-adcp-cells) was used to analyze IL1RAP mAb STLX2012 for ADCC activity. Briefly, the Jurkat cell line was engineered to express the cell surface Fc receptor CD16A (FcγRIIIA) and the Lucia luciferase reporter gene. ADCC is triggered by CD16A cross-linking upon antigen-bound antibody binding at the surface of immune effector cells. Cells are maintained in the presence of zeocin (100 μg/ml) and blasticidin (10 μg/ml).

AML cells (patient #6) = assay: AML patient-derived sample engraftment in immunodeficient mice; format: in vivo, NSG-SGM3 immunodeficient mice
Excerpt: Methods: NSG™-SGM3 immunodeficient mice (Jackson Laboratory) were irradiated with 200 rads and then infused with AML cells (patient #6) collected from a leukapheresis sample and then treated bi-weekly with three doses of STLX2012 or control IgG1 antibody for 7 weeks. Doses were 1 mpk, 10 mpk, or 30 mpk for STLX2012, and 30 mpk for control IgG1.

[7] = day 50, 1, 10, 30 mpk bi-weekly 7 weeks, vs control IgG

B1: 74804_12A21B: anti-IL1RAP mAb; VH SEQ ID NO:6, VL SEQ ID NO:23, κ light chain (antibody, V domains shown)
VH: QVQLLQSGAEVKKPGSSVKVSCKASGGTFSIYAIDWVRQAPGQGLEWMGGIIPIFGTANSAQKFQGRVTITADKSTSTAYMELSSLRSEDTAVYYCARNGATSDAFDMWGQGTMVTVSS
VL: EIVLTQSPGTLSLSPGERATLSCRASLSVSSNYLAWFQQRPGQAPRLLIHGVSRRATGIPDRFSGSGSGTDFTLTISRLEPEDFAVYYCQQYGSSPLTFGGGTKVEIK
modifications: 74804_12A21B VH and 74804_29D13A VH; 74804_12A21B VL
[1]
  Inhibition of IL1 signaling (phosphorylation of ERK and NFκB): inhibited IL1 signaling in AML patient samples
[2]
  Inhibition of IL33 signaling (phosphorylation of ERK, p38 and NFκB): inhibited IL33 signaling in AML patient samples
[3]
  Inhibition of IL36 signaling (phosphorylation of ERK, AKT, p38 and NFκB): Inhibition of IL36 signaling in solid tumor cancer cells
[4]
  Inhibition of viability: inhibition of viability of patient-derived AML samples
AML cells (THP-1)
  Expression of CD14 differentiation marker: induced the expression
  Expression of CD15 differentiation marker: induced the expression
[5]
  Inhibition of IL36γ-induced NFκB activity: inhibition of the IL36γ-induced NFκB activity in a dose-dependent manner
[6]
  ADCC activity (reporter): showed ADCC activity
AML cells (patient #6); 1, 10, 30 mpk
  bone marrow (BM) chimerism, dose dependence: dose-dependent reduction in bone marrow (BM) chimerism
AML cells (patient #6); [7]
  human CD45+AML cells in spleens: significantly reduced human CD45+AML cells
  human CD45+AML cells in the bone marrow: significantly reduced human CD45+AML cells
